Laboratory results taken from the nanobody polyreactivity screen of Harvey et al. (2022).

Experiment: yeast display, Sf9 membrane polyspecificity reagent, FACS + sequencing; frameworks hold sequencing errors
In short: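 A synthetic nanobody library was expressed on Saccharomyces cerevisiae BJ5465 by galactose induction for 36–48 hours. The library was stained for 1 hour at 4 °C with 10% biotinylated, detergent-solubilized Sf9 membrane reagent and enriched with streptavidin microbeads before FACS. Low and high (top ~1%) gates were set on anti-HA fluorescence for expression and streptavidin fluorescence for reagent binding, and each polyreactivity label reflects the gate of origin.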

Sequence	polyreactivity (PSR sort gate)
QVQLVESGGGLVQAGGSLRLSCAASGSTFINYARGWYSQAPGKERELVAVITSDDGSTYDADSVKGRFTISRDNAKNTVYLQMNSLKPEDTAVYYCAAYYYDQRYRPGPWYDYWGQGTQVTVSS	low polyreactivity
QVQLVESGGGLVQAGGSLRLSCAASGSTFIPNTMGWYRQAPGKERELVAAISRRGGSTNYADSVKGRFTISRDNAKNTVYLQMNSLKPEDTAVYYCAAVSPRRYRYDYWGQGTQVTVSS	high polyreactivity
QVQLVESGGGLVQAGGSLRLSCAASGSTFIPYAMGWYRQAPGKERELVAAIRGGDGSTYYADSVKGRFTISRDNAKNTVYLQMNSLKPEDTAVYYFAADTVITAYFDRFWRYNYWGQGTQVTVSS	low polyreactivity
QVQLVESGGGLVQAGGSLRLSCAASGSTFIPYAMGWYRQAPGKERELVAAISFNDGITYYADSVKGRFKISRDNAKNTVYLQMNSLKPEDTAVYYCAAEDWSDYPYGMDYWGQGTQVTVSS	high polyreactivity
QVQLVESGGGLVQAGGSLRLSCAASGSTFIRNAMGWYRPAPGKERELVAAISSSGGRTYYADSVKGRFTISRDNAKNTVYLQMNSLKPEDTAVYYCAARNARYVHTMEYWGQGTQVTVSS	high polyreactivity
QVQLVESGGGLVQAGGSLRLSCAASGSTFISYAMGWYRQAPGKERELVAAIRYRDGRTYYADSVKGRFTNSRDNAKNTVYLQMISLKPEDTAVYYCAAKYRGLYSGMYYWGQGTQVTVSS	high polyreactivity
QVQLVESGGGLVQAGGSLRLSCAASGSTFISYDMGWYRQAPGKERELVADITSVGGSTYYADSVKGRFTISRDNAKNTVYLQMNSLKPEDTAVYYCNAEAEWEEEGGSWGQGTQVTVSS	low polyreactivity
QVQLVESGGGLVQAGGSLRLSCAASGSTFIVNAMGWYRQAPGKERELVATISGGDSTDYADSVKGRFTISRDNAKNTVYLQMNSLKPEDTAVYYCNSDVHQYYFTPYDYWGQGTQVTVSS	low polyreactivity
QVQLVESGGGLVQAGGSLRLSCAASGSTFIVYAMGWYRQAPGKERELVASITWRGGSTYYADSVKGRFTISRDNAKNTVYFQMNSLKPEDTAVYYCARGYETTNYQKFYITDDGDYWGQGTQVTVSS	low polyreactivity
QVQLVESGGGLVQAGGSLRLSCAASGSTFIWNAMGSYRQAPGKERELVAAISSGGSTYYADSVKGRFTISRDNAKNTVYLQMNSLKPEDTAVYYCAAEYVYNVWEQRYAVYSTDDYWGQGTQVTVSS	low polyreactivity
QVQLVESGGGLVQAGGSLRLSCAASGSTFIWNAMGWYRQAPGKERELVATITGSGDRTTYADSVKGRFTISRDNAKNTVYLQMNSLKPEDTAVYYCAADAYRWWVRYDYWGQGTQVTVSS	low polyreactivity
QVQLVESGGGLVQAGGSLRLSCAASGSTFIYNAMGWYRQAPGKERELVAAISSGGSTYYADSVKGRFTISRDNAKNTVYLQMNSLKPEDTAVYYCNAYRYRHYRVDYWGQGTQVTVSS	low polyreactivity
QVQLVESGGGLVQAGGSLRLSCAASGSTFIYNTMGWYRQAPGKEREFVAAITQSGGDTYYADSVKGRFTISRDNAKNTVYLQMNSLKPEDTADYYCAAYWILNNFEMYYWGQGPQVTVSS	low polyreactivity
QVQLVESGGGLVQAGGSLRLSCAASGSTFIYYAMGWYRQAPGKERELVAAITSAGRTNYADSVKGRFTISRDNAKNTVYLQMNSLKPEDTAVYYCAAAYRPRKHHYDYWGQGTQVTVSS	high polyreactivity
QVQLVESGGGLVQAGGSLRLSCAASGSTFIYYAMGWYRQAPGKERELVAVITGNGGRTYYADSVKGRFTISRDNAKNTVYLQMNSLKPEDTAVYYCAALYDGIYDSWGQGTQVTVSS	high polyreactivity
QVQLVESGGGLVQAGGSLRLSCAASGSTFIYYAMGWYRQAPGKEWELVAAITSAGRTNYADSVKGRFTISLDNAKHTVYLQMNSLKPEDTAVYYCAAAYRPRKHHYDYWGQGTQVTVSS	high polyreactivity
QVQLVESGGGLVQAGGSLRLSCAASGSTFIYYTMGWYRQAPGKERELVAAIPSSGGSTYYADSVKGRFTISRDNAKNTVYLQMNSLKPEDTAVYYCAADGTYIKFAKLYRRYDYWGQGTLVTVSS	low polyreactivity
QVQLVESGGGLVQAGGSLRLSCAASGSTFKAYAMGLYRPAPGKERELVAAITRRGTSTYYADSVKGRFTISRDNAKNTVYLQMNSLKPEDTAVYYCNAKYVSDRSSAVSFDYWGQGTQVTVSS	low polyreactivity
QVQLVESGGGLVQAGGSLRLSCAASGSTFKAYAMGWYRQAPGKERELVAAITRRGTSTYYADSVKGRFTISRDNAKNTVYLQMNSLKPEDTAVYYCNAKYVSDRSSAVSFDYWGQGTQVTVSS	low polyreactivity
QVQLVESGGGLVQAGGSLRLSCAASGSTFKFNDMGWYRQAPGKERELVAAISRGGRTNYADSVKGRFTISRDNAKNTVYLQMNSLKPEDTAVYYCAADYSTLYKYDYWGQGTQVTVSS	low polyreactivity
QVQLVESGGGLVQAGGSLRLSCAASGSTFKFNTMGWYRQAPGKERELVAAISWRGGSTYYADSVKGRFTISRDNAKNTVYLQMYSLKPEDTAFYYCAAPWYIRYDSWGQGTQVTVSS	high polyreactivity
QVQLVESGGGLVQAGGSLRLSCAASGSTFKGYAMGWYRQAPGKERELVAAITWIGGSTTYADSVKGRFTISCDNAKNTVYLQMNSLKPEVTAVYYCAADNFWYFLSATEDYWGQGTQVTVSS	low polyreactivity

Sequence	polyreactivity (PSR sort gate)
QVQLVESGGGLVQAGGSLRLSCAASGSTFKHNTMGWYRQAPGKERELVAAITSSGGTYYADSVKGRFTISRDNAKNTVYLQMNSLKPEDTAVYYCAARVTYRGRAYDYWGQGTQVTVSS	high polyreactivity
QVQLVESGGGLVQAGGSLRLSCAASGSTFKIYAMGWYRQAPGKERELVARITGRGGSTYYADSVKGRFTISRDNAKNTVYLQMNSLKPEDTAVYYCAARTYYVPYYYWGQGTQVTVSS	high polyreactivity
QVQLVESGGGLVQAGGSLRLSCAASGSTFKLNAMGWYRQAPGKERELLASISTGASTNYADSVKGRFTISLDNAKNTVYVQMNSLNPEDTAVYYCAAQYPFAGYYITQYEYDYWGQGTQVTVSS	low polyreactivity
QVQLVESGGGLVQAGGSLRLSCAASGSTFKPNAMGSYRQAPGKEREFVASITWSAGSTYYADSVKGRFTISRDNAKNTVYLQMNSLKPEDTAVYYCAARLRWAGISRYGYWGQGTQVTVSS	high polyreactivity
QVQLVESGGGLVQAGGSLRLSCAASGSTFKQYAMGWYRQAPGKERELVAAISTIGGSTYYADSVKGRFTISRDNAKITVYLQMNSLKPEDTAVYYCAAEYWYIWPYNYWGLGTQVTVSS	high polyreactivity
QVQLVESGGGLVQAGGSLRLSCAASGSTFKRYAKGWYRQAPGKERELVAAITLSGGNTYYADSVKGRFTISRDNAKNTVYLQMNSLKPEDTAVYYCAARRYRGYDYWGQGTQVTVSS	high polyreactivity
QVQLVESGGGLVQAGGSLRLSCAASGSTFKRYAMGWYRQAPGKERELVAAINRSGTSTYADSVKGRFTISRDNAKNTVYLQMNSLKPEDSAVYYCARYYAYLRVKYDYWGQGTQVTVSS	high polyreactivity
QVQLVESGGGLVQAGGSLRLSCAASGSTFKSNAMGWYRQAPGKERELVAAINRSGAGTYYADSVKGRFTISRDNAKHTVYLQLNSLKPEDTAVYYCAAQSYSRRYDYWGQGTQVTVSS	high polyreactivity
QVQLVESGGGLVQAGGSLRLSCAASGSTFKSYTMGWYRPAPGKERELVAAISGSGGRTYYADSVKGRFTISRDNAKNTVYLQMNSLKPEDTAVYYCAATGPYGFYWGQGTQVTVSS	high polyreactivity
QVQLVESGGGLVQAGGSLRLSCAASGSTFKSYVMGWYRAAPGKERELVAAISTGDSTYYADSVKGRFTISRDNAKNTVYLQMNSLKPEDTAVYYCAADPGYTVEPWEDDYWGQGTQVTVSS	low polyreactivity
QVQLVESGGGLVQAGGSLRLSCAASGSTFKSYVMGWYRQAPGKERELVAAISSGDSTYYADSVKGRFTISRDNAKNTVYLQMNSLKPEDTAVYYCAADPGYTVEPWEDDDWGQGTQVTVSS	low polyreactivity
QVQLVESGGGLVQAGGSLRLSCAASGSTFKSYVMGWYRQAPGKERELVAAISSGDSTYYADSVKGRFTISRDNAKNTVYLQMNSLKPEDTAVYYCNADVSLDDYDYWGQGTQVTVSS	low polyreactivity
QVQLVESGGGLVQAGGSLRLSCAASGSTFKVYAMGWYRQAPGKERELVAVISGGGRTNYADSVKGRFTISRDNAKNTVYLQMNSLKPEDTAVYYCAAQATYHRYYTYYYWGQGTKVTVSS	high polyreactivity
QVQLVESGGGLVQAGGSLRLSCAASGSTFKWNAMGWYRQAPGKERELVAAISKGSVNTYYADSVKGRFTISRDNAKNTVYLQMNSLKPEDTAVYYCAADRRYPALDYWGQGTQVTVSS	high polyreactivity
QVQLVESGGGLVQAGGSLRLSCAASGSTFKWYAMGWYRQAPGKERELVATISSGGSTNYADSVKGRFTISRDNAKNTVYLQMNSLKPEDTAVYYCAAANFKWGQGTQVTVTS	low polyreactivity
QVQLVESGGGLVQAGGSLRLSCAASGSTFKYNAMGWYRQAPGKERELVASISRSGGSTYYADSVKGRFTISRDNAKNTVYLQMNSLKPEDTAVYYCNVRRFVHYEYWGQGTQVTVSS	high polyreactivity
QVQLVESGGGLVQAGGSLRLSCAASGSTFKYNAMGWYRQAPGKERELVATISGTGGSTYYADSVKGRFTISRDNAKNTVYLQMNSLKPEDTAVYYCAARWGRSQLRYYYWGQGTQVTVSS	high polyreactivity
QVQLVESGGGLVQAGGSLRLSCAASGSTFKYYVMGWYRQAPGKERELVAAITRSGSTNYADSVKGRFTISRDNAKNTVYLQMNSLKPEDTAVYYCAAERALSRYGYWGQGTQVTVSS	low polyreactivity
QVQLVESGGGLVQAGGSLRLSCAASGSTFLAYAMGWYRQAPGKERELVAAISSRGSRTYYADSVKGRFTISRDNAKNTVYLQMNSLKPEDTAVYYCATPYSRSYSYRYDYWGQGTQVTVSS	high polyreactivity
QVQLVESGGGLVQAGGSLRLSCAASGSTFLGNAMGWYRQAPGKERELVATITGSSGSTYYADSVKGRFTISRDNAKNTVYLQMNSLKPEDTAVYYCNTVYNYWDGYDYWGQGTQVTVSS	low polyreactivity
QVQLVESGGGLVQAGGSLRLSCAASGSTFLGNAMGWYSQAPGKERELVASISWSGGSTSYADSVKGRFTISRDIAKNTVYLLMNSLKPEDTAVYYCAVDWRYTGRTYYGMESWGQGTQVTVSS	low polyreactivity
